# B1: CR6261 (antibody, V domains shown)
# VH: EVQLVESGAEVKKPGSSVKVSCKASGGPFRSYAISWVRQAPGQGPEWMGGIIPIFGTTKYAPKFQGRVTITADDFAGTVYMELSSLRSEDTAMYYCAKHMGYQVRETMDVWGKGTTVTVSS
# VL: QSVLTQPPSVSAAPGQKVTISCSGSSSNIGNDYVSWYQQLPGTAPKLLIYDNNKRPSGIPDRFSGSKSGTSATLGITGLQTGDEANYYCATWDRRPTAYVVFGGGTKLTVLG
# Experiments:
# Details in all cases: remark: other sources report otherwise
# [1] = biological target: T1, s-H1-mini2-cluster1 + 5 + 6-GCN4 (A/Brisbane/59/2007) (influenza A virus H1N1); test: BLI steady state titration, 1:1 model
# [2] = biological target: mini2-cluster11 + 5 + 6 (A/Brisbane/59/2007) (influenza A virus H1N1), A8C8J4; test: FACS
# [3] = biological target: H1-mini2-cluster1 + 5 + 6-trim (influenza A virus H1N1), A8C8J4; test: FACS
# [4] = biological target: mini2-cluster1 + 5 (A/Brisbane/59/2007) (influenza A virus H1N1), A8C8J4; test: FACS
# [5] = biological target: miniHA cluster1 (A/Brisbane/59/2007) (influenza A virus H1N1), A8C8J4; test: FACS
# [6] = biological target: mini2 cluster11 + 5 (A/Brisbane/59/2007) (influenza A virus H1N1), A8C8J4; test: FACS
# [7] = biological target: T1, s-H1-mini2-cluster1 + 5 + 6-GCN4 …
binder,measurement,setting,value
B1,Kd,[1],0.19 µM
same,% positive cells,[2],80%
same,% positive cells,[3],80%
same,fold reduction of MFI against SEQ ID NO: 46,[3],3 to 4 fold
same,% positive cells,[4],80%
same,% positive cells,[5],60%
same,MFI relative to full-length HA,[5],10%
same,% positive cells,[6],80%
same,MFI relative to full-length HA,[6],50%
same,BLI maximum response,[7],0.25 nm
